Drawing on publication PMC2998059, this text covers binding relative to PC1-FLCT for 1 substance.

This assay concerns the target GST-PC1 C-terminus deletion mutant SH3. The experiment in a line: pull-down.

The substance “myc-tagged QLα12 (constitutively active, GTPase-deficient Gα12) (from UniProt P27600 48-379) (natural protein)” yielded a binding relative to PC1-FLCT of 50%.
